Laboratory results from paper PMC5735301 (Oncogene, 2017).
Values joined by “and” are separate entries in the source; they are usually repeats but may differ in a detail not shown here. Equal values may be shown once.

Target: the molecule itself

B1: RXRα (protein of Supplementary Figure S1f; tetramer and dimer) (natural protein)
chain: MDTKHFLPLDFSTQVNSSLTSPTGRGSMAAPSLHPSLGPGIGSPGQLHSPISTLSSPINGMGPPFSVISSPMGPHSMSVPTTPTLGFSTGSPQLSSPMNPVSSSEDIKPPLGLNGVLKVPAHPSGNMASFTKHICAICGDRSSGKHYGVYSCEGCKGFFKRTVRKDLTYTCRDNKDCLIDKRQRNRCQYCRYQKCLAMGMKREAVQEERQRGKDRNENEVESTSSANEDMPVERILEAELAVEPKTETYVEANMGLNPSSPNDPVTNICQAADKQLFTLVEWAKRIPHFSELPLDDQVILLRAGWNELLIASFSHRSIAVKDGILLATGLHVHRNSAHSAGVGAIFDRVLTELVSKMRDMQMDKTELGCLRAIVLFNPDSKGLSNPAEVEALREKVYASLEAYCKHKYPEQPGRFAKLLLRLPALRSIGLKCLEHLFFFKLIGDTPIDTFLMEMLEAPHQMT
With B1 the “stoichiometry N” value was 4 and 2.
